Laboratory results taken from the nanobody polyreactivity screen of Harvey et al. (2022).

Assay: yeast display, Sf9 membrane polyspecificity reagent, FACS + sequencing; frameworks hold sequencing errors
How it was run: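 Galactose induction of a Saccharomyces cerevisiae BJ5465 synthetic nanobody display library ran 36–48 hours. The cells were then stained for 1 hour at 4 °C with 10% biotinylated, detergent-solubilized Sf9 membrane reagent, pulled down on streptavidin microbeads and FACS-sorted into low and high (top ~1%) gates on expression and reagent-binding fluorescence. Labels for polyreactivity follow the gate of origin.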

| Sequence | polyreactivity (PSR sort gate) |
| --- | --- |
| QVQLVESGGGLVQAGGSLRLSCAASGSTFEGNDMGWYRQAPGKERELVASITSDTSTYADSVKGRFTISRDNAKNTVYLQMNSLKPEDTAVYYCNTGSYAETYYWITDPYDYWGQGTQVNVSS | low polyreactivity |
| QVQLVESGGGLVQAGGSLRISCAASGRIFRVNGMGWSRQEPGKESELVAAIRRSGGSTYYADSVKGRFTISRDYAKKSVYLQMNSLKPEDTAVYFCAAAVRQSSYTRYDSWGQGTQVTVSS | high polyreactivity |
| QVQLVESGGGLVQAAGSLRFSWAASRSIFRQYGMGWYRQAHGKERELVARISRRSGTTYYADSVKGRFTISRDYAKNTVYLQMNSLKPEDSAVSYCAAVPGWIHVDYWGQGTQVTVSS | high polyreactivity |
| QVQLVESGGGLVQAGGSLRLSSAASGSTFLVYSMGWSRQAPGKERELVAAIRGAGSTNYADSVKGRFTISRDNAKNTVYLQMIRLKPEDTAVYYCAAYLLYTPSMDYWGQGTQVTVSS | low polyreactivity |
| QVQLVESGGGLVQAGGSLRLSCAASGSTFDTYAMGWYRPAPGKERELVAAISRSGTSTYYADSVKGRFTISRDNAKNTVYLQMNSLKPEDSAVYYCAAYGPRVNGEIGREYYYWGQGTQVTVSS | low polyreactivity |
| QVQLVESGGGLVQAGGSLRLSCAASGSIFTFNAMGWYRQAPGKERELVAAISTGGNTYYADSVKGRFTISRDNAKNTVYLQINSLKPEDTAVFYCAAVRRTDGDGKYYYWGQGTQVTVSS | high polyreactivity |
| QVQLVESGGGLVQAGGSLRLSCAASGHTLAVKAKGWYRQAPGKERELVAAITRSGVTTSYADSVKGRFTISRDNAQNTFYLQLHSVKPEDTAVSYCAAQLDASYLTGGWRRHYNYWGQGTQVTVSS | low polyreactivity |
| QVQLVESGGGLVQAGGSLRLSCAASGSILRTYTMGWYRQATGKERELVAAISSSGGRTYYADSVKGRFTISRDNAKNTVYLQMNSLKPEDTAVYYCNAGGYRYRSYDYWGQGTQVTVSS | high polyreactivity |
| QVQLVESGGGLVKAGGSLRLSCAASGFIFGYNAMGWDRQAPGKERELVAVITDSSDSTYYADSVKGRFTISRDNAMNTVYLQMNSLKPEDTAVYYCDTDYGYAGDYWGQGTQVTVSS | low polyreactivity |
| QVQLVESGGGLVQAGGSLRLSCAASGFTFAYNAMGWYRQAPGKERELVATISWSGGSPYYADSVKGRFTISRDNAKNTVYLQMNSLKPEDTAVYYCATTIFYTYYGLYDYWGQGTQVTVSS | high polyreactivity |
| QVQLVESGGGLVQAGGSLRVSCAASGFTFVGTAMGWYRQAPGKERELVAAITWSGGRTYYADSVKGRFTISRDKAKNTVYLQMNSLTPEDTAVYYCATRWRGRMDYWGQGTQVTVSS | high polyreactivity |
| HVQLVESGGGLVQAGGSRLLSCAASGFTIYANAMGWYSQAPGKERELVAAITWRGGSTYYADSVKVRFTISRDNAKNTVYLQMNSLKPADTAVYYCNALKGRPVRSYLASPSYRYEYWGQGTQVTVSS | high polyreactivity |
| QVQLVESGGGLVQAGGSLRLSCAASGRIYNGNAMGWYRQAPGKERELVAAITSDGSTYADSVKGRFTISRDNAKNTVYLHMNSLKPEATADYYCATDDPLAYGSFGPYQPYDYWGQGTQVTVSS | low polyreactivity |
| QVQLVESGGGLVQAGGSLRLSCAASGLTFPSNAMGWYRQAPGKERELVAAISKRGGRKYYADSVKGRFTISRDNAKNTVYLQMNSLKPEDTAVYYCATPYAYPGTVQYARYNYWGQGTQVTVSS | high polyreactivity |
| QVQLVESGGGLVQAGGSLRLSCAASGRTFPYYAMGWYRQATGKERELVAAITTNDGDTYYADSVKGRFTISRDNAKNTVYLQMNSLKPEDTAVYYCSADSGSTSEYEYWGQGTQVTVSS | low polyreactivity |
| QVQLVESGGGLVQAGGSLRLSCAASGIIFAYYAMGWYRQGPGKERELVASITNTGSTYYADSVKGRFTISRDNSKNTVYLQMNSLKPEDTAVYYCNAVLSSNTKWRYPGDYWGQGTQVTVSS | low polyreactivity |

| Sequence | polyreactivity (PSR sort gate) |
| --- | --- |
| QVQLHESGGGLLQAGGGLRLSCAASGSISSTGFMCWYRQAPGKEREPVAAIAPGTTTYYADSVKGRFTISRDNAKNSVYLQKNSLRPEDTAVYYCAVFTDNRVAFLYWGQGTQVTVSS | low polyreactivity |
| QVQLEESGGGLVQAGGSLRLSCADSGSTLYWNAMGWYRQAPGKERELVAVISESGGTTYYADSVKGRFTISRDNAKNTVYLQMNSLKPEDTAVYYCAAVWYYQFGVWGYYWGQGTQVTVSS | low polyreactivity |
| QVQLVESGGGLVQAGGSLRLSCAASGSIFRIYVMGWYRQAPGKERELVAAINSGGRTKYADSVKGRFTISRDNAKNTVYLLMNSLKPDDTAVYYCAAAFLYRKGVSSLYDSWGQGTQVTVSS | high polyreactivity |
| QVQLEESGGGLVQAGGSLRLSCAASGSTFYINAMGWYRQAPGKERELVAAITWRGGRTYYADSVKGRFTISRDNAKNTVYLQLNSLKPEDTAVYYCAAKVRWHRGTSSYYYWGQGTQVTVSS | high polyreactivity |
| KVQLVESGGGLVQAGGSLRLSCAASGSIISGNAMGWYRQAPGKERELVAAISRSGGRTYYADSVKGRFTISRDNAKNTVYLQMNSLKPEDTAVYFCAAGRSLRGDYWGQGTQVTVSS | high polyreactivity |
| QVQLVESGGGLVQAGGSLRLSCAASGFIFRPYVMGWYRQAPGKERELVAAISRSGSSTYYADSVKGRFTISRDNAKNTVYLQMNSLQPEDTAVYYCARRTSQEFDYWGQGTQVTVSS | high polyreactivity |
| QVQLVESGGGLDQAGGSLRLSCAASGRIFDSNAMGWYRQAPGKERELVAAISYDGGSTYYADSVKGRFTISRDNAKNTVYLQMNSLKPEDTAVYYCAGDDGWYYYYGYDYWGQGTQVTVSS | low polyreactivity |
| QVQLVESGGGLVQAGGSLRLSCAASGIIFYPYAMGWYRQAPGKESELVADITSGGGTNYAYSVKGRITISRDNAKNTVYLQMNSLKQEDTAVYYCAAEVRGYHWGTYYEFYYWGQGTQVTVSS | low polyreactivity |
| QVQLVESGGGLVQAGGSLRLSCAASGITIVRYAMGWSRQAPGKERELVAAINRSGGSTYYADSVKGRFTISRDNAKNTVYLQMNSLKPEDTAVYYCAARLYGKYDPPGYYYWGQGTQVTVSS | high polyreactivity |
| QVQLVESGGCLVQAGGSLRLICAASGNTFYVYAMGWYRQAPGKERELVAAITWSGGSTNYADSVKGRYTISRDNAKNTVYLQMNSLKPEDSAVYYCKADYWTFSPYDYWGQGTQVTVSS | low polyreactivity |
| QVQLVESGGGIVQAGGSLRLSCAASGSTFVVYAMVWYRQEPGKERELVAAITSGGSTYYADSVKGRFTISRDNAKNTVFLQMNSLKPDDSAVYYCNKDDFSNELYWGQGTDVTVSS | low polyreactivity |
| QVHLVESGGGLVQAGGSLRLSCAASGFIFGSNAMGWSRQAPGKERELVAAITYSGASTYYADSVKGRFTISRDNAKNTVYLQMNSLKPEDTAVYYCNAVYSSVVDGSEGFDYWGQGTQVTVSS | low polyreactivity |
| QVQLVESWGGLVQAGGSLRLRCAASGSTSLGYAMGWYRQAPGKERELVASISWTGGGKYYADSVKGRFTISRDNAKNTVYLQMNSLKPEDTAVYYCAADLTGYHPYIYGYWGQVTQVTVSS | low polyreactivity |
| QVQLVESVGGLVQAGGSLRLSGAASGSTFGRYAMGWSRQAPGKEREFVANISWSDGSTNYADSVKGRFTISRDHAKNTVYFQMNSLKPEDTAVYYCATGLGYTAFGKEVYDWHDYWGQGTQVTVSS | low polyreactivity |
| QVQLVESGGGLVQAGGSLRLSCAASGSIFRSYDMGMYRQAPGKERELVADITRTGGNTYYADSVKGRFTISRDNAKNTVYLQMNSLKPEDTAVYYCAATYILTVSVFSYVWPYDYWGQGTQVTVSS | high polyreactivity |
